Results: article PMC7550680

Biological target: NaV1.5 voltage-gated sodium channel α subunit (human SCN5A) (human) (UniProt Q14524)

For “Sodium channel β1 subunit carrying p.D103V (β1^D103V) (from UniProt Q07699-1 19-218) (natural protein)”, the positive shift of the voltage dependence of activation (V1/2) of the NaV1.5 sodium current with β1^D103V compared to β1^WT, whole cell patch clamp in transfected HEK-293 tsA201 cells was 3.37 mV.
